Literature values in PMC4243993.

Target: His105 (UniProt position 105, PPVKIHCSILA)

Substance: Iron-sulfur cluster assembly scaffold protein IscU (Escherichia coli)
- pKa: around 9
